From the supplement of paper PMC7125110
± gives the standard error. Fewer inactive variants are shown than the library holds.

B1: glmS ribozyme (parent)
chain: AUAAAAGCGCCAGAACUACAGAAAUGUAGUUGACGAGGAGGAGGUUUAUCGAAUUUUCGGCGGAUGCCUCCAAA

Legend:
Settings in all cases: with glucosamine-6-phosphate
glucosamine-6-phosphate [1] = variants of: B1; test: self-cleavage kobs at 40 uM GlcN6P; higher = faster cleavage; RNA array
Outline: (§1)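 Glucosamine-6-phosphate, from 40 μM to 10 mM in HEPES/KCl/Mg(OAc)2 buffer, was flowed over sequenced MiSeq chips carrying barcoded ribozyme variants transcribed in situ by E. coli RNA polymerase. A hybridised Cy3 probe tracked the variants at 37 °C as tiles were imaged over ~14 h. kobs, kcat and KM were obtained by fitting normalised per-tile medians to exponential decays and then applying weighted Michaelis–Menten fits across concentrations.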

glucosamine-6-phosphate [2] = variants of: B1; test: self-cleavage kobs at 10000 uM GlcN6P; higher = faster cleavage; RNA array
Outline: as §1

glucosamine-6-phosphate [3] = variants of: B1; test: self-cleavage kobs at 160 uM GlcN6P; higher = faster cleavage; RNA array
Outline: as §1

glucosamine-6-phosphate [4] = variants of: B1; test: self-cleavage kobs at 2500 uM GlcN6P; higher = faster cleavage; RNA array
Outline: as §1

glucosamine-6-phosphate [5] = variants of: B1; test: self-cleavage kobs at 640 uM GlcN6P; higher = faster cleavage; RNA array
Outline: as §1

Variant | self-cleavage kobs at 40 uM GlcN6P (glucosamine-6-phosphate [1]) [s⁻¹] | self-cleavage kobs at 10000 uM GlcN6P (glucosamine-6-phosphate [2]) [s⁻¹] | self-cleavage kobs at 160 uM GlcN6P (glucosamine-6-phosphate [3]) [s⁻¹] | self-cleavage kobs at 2500 uM GlcN6P (glucosamine-6-phosphate [4]) [s⁻¹] | self-cleavage kobs at 640 uM GlcN6P (glucosamine-6-phosphate [5]) [s⁻¹]
C8A U55G A64C U69G | 0.000295 ± 0.00013 | 5.15e-05 ± 2.4e-05 | – | – | –
G7A C34G U56C | < 1e-05 | – | – | – | –
G7C C16G U47A | < 1e-05 | < 1e-05 | < 1e-05 | < 1e-05 | –
G7U C10G A15C G37C | < 1e-05 | – | – | – | –
C8A A14G | < 1e-05 | – | – | – | < 1e-05
G7C C71G | < 1e-05 | < 1e-05 | – | < 1e-05 | –
G7U G37A C58U U69G | 7.21e-05 ± 2.9e-05 | – | – | – | –
A6U A12C U45A A52C | < 1e-05 | < 1e-05 | – | < 1e-05 | –
G7U C8G A12U U49G | < 1e-05 | < 1e-05 | < 1e-05 | < 1e-05 | < 1e-05
A6U C10G A42G C50G C67A C70A | 0.000143 ± 4.1e-05 | 9.95e-05 ± 2.4e-05 | – | – | –
G7C G29U G32U A64C | < 1e-05 | – | – | – | –
G7U A15G | < 1e-05 | < 1e-05 | < 1e-05 | < 1e-05 | < 1e-05
G7U C10U G13C A52G | < 1e-05 | – | – | – | –
G7U C8A | < 1e-05 | – | < 1e-05 | < 1e-05 | –
G7U G51A | < 1e-05 | < 1e-05 | < 1e-05 | < 1e-05 | –
C8A C68A | < 1e-05 | – | < 1e-05 | < 1e-05 | < 1e-05
C8A A42G C68U | < 1e-05 | < 1e-05 | – | – | –
G7U G44C | < 1e-05 | < 1e-05 | < 1e-05 | < 1e-05 | < 1e-05
G7A U30A U45C | < 1e-05 | < 1e-05 | – | < 1e-05 | –
G7A G13A C68U | < 1e-05 | – | – | – | –
G7A C58A C67G | 5.23e-05 ± 2.2e-05 | – | – | – | –
G7U U31A G32U G41U A48U | < 1e-05 | < 1e-05 | – | – | –
A6G G51U U65A | < 1e-05 | < 1e-05 | – | – | –
G7U A42U | < 1e-05 | < 1e-05 | – | < 1e-05 | < 1e-05
A6U G43A | < 1e-05 | < 1e-05 | < 1e-05 | – | –
A6G U31C C68A | < 1e-05 | – | – | – | –
